Consider 6 molecules from publication PMC2064158 (The Journal of Cell Biology, 2006).

The chains are these.
B3: ScMad2^wt (recombinant S. cerevisiae Mad2, wild type) (natural protein)
chain: MSQSISLKGSTRTVTEFFEYSINSILYQRGVYPAEDFVTVKKYDLTLLKTHDDELKDYIRKILLQVHRWLLGGKCNQLVLCIVDKDEGEVVERWSFNVQHISGNSNGQDDVVDLNTTQSQIRALIRQITSSVTFLPELTKEGGYTFTVLAYTDADAKVPLEWADSNSKEIPDGEVVQFKTFSTNDHKVGAQVSYKY

The target in one assay is AlexaFluor488-HsMad2^wt (human, UniProt Q13257 1-205, AlexaFluor488, covalent). The experiment in a line: SEC.
Chain of AlexaFluor488-HsMad2^wt (Q13257 whole entry): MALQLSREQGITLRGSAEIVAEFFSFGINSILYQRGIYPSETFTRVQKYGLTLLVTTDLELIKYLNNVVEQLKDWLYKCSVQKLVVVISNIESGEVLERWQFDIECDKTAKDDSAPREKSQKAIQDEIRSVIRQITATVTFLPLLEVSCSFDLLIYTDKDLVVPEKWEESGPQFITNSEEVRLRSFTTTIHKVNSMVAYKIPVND
In assay [1] the target is B3. Nature of the assay: SEC.
For assay [2], the target named is C-Mad2^wt–Cdc20^195–211 complex (S. cerevisiae, UniProt P40958;P26309). The experiment in a line: SEC. (In gel filtration, larger molecules generally elute earlier.)
In assay [3] the target is B3. Nature of the assay: pull-down.
Assay [4] addresses T1, ScMad2^RQEA (recombinant, Arg126-Glu/Gln127-Ala) (S. cerevisiae, UniProt P40958 1-196, R126E | Q127A).
T1 sequence: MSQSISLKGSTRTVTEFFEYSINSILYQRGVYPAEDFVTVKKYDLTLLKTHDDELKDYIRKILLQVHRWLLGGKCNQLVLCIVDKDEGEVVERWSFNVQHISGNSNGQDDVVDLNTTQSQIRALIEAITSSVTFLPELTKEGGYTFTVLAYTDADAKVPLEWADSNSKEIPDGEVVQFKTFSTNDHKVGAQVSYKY
The experiment in a line: ITC. (In general: ITC needs no label: the signal is the heat of the interaction.)

The target in a further assay is T2, AlexaFluor488-ScMad2^wt (S. cerevisiae, UniProt P40958 1-196, AlexaFluor488 succimidyl ester reactive dye, covalent, final dye/protein ratio ~0.5).
T2 sequence: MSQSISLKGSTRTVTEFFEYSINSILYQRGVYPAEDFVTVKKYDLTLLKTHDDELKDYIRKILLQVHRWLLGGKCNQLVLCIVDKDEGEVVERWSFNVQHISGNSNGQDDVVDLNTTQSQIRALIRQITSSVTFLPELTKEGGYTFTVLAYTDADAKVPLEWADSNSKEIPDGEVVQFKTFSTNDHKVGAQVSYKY
The experiment in a line: SEC.

B1: HsCdc20^111–138 synthetic peptide (peptide)
peptide: EHQKAWALNLNGFDVEEAKILRLSGKPQ
In the case of B1, the binding result in the assay with AlexaFluor488-HsMad2^wt is reported as “binds”.

B2: ScMad2^ΔC (recombinant, six residues deleted from the C terminus) (domain or fragment)
chain: MSQSISLKGSTRTVTEFFEYSINSILYQRGVYPAEDFVTVKKYDLTLLKTHDDELKDYIRKILLQVHRWLLGGKCNQLVLCIVDKDEGEVVERWSFNVQHISGNSNGQDDVVDLNTTQSQIRALIRQITSSVTFLPELTKEGGYTFTVLAYTDADAKVPLEWADSNSKEIPDGEVVQFKTFSTNDHKVGA
As to B2, in assay [1], the binding result was “binds”.

As to B3, in assay [2], the “percent of total Mad2 in the dimer peak at a 4:1 Mad2/Cdc20^195–211 ratio” value was approximately 50%.

B4: GST-ScMad1^563–590 (domain or fragment)
chain: QLLQEKLEKLTKLKEKKIRILQLRDGPF
On to B4, for which, in assay [3], the binding result was “binds”.

B5: ScCdc20^195–211 synthetic peptide (peptide)
peptide: GLDMNKRILQYMPEPPK
Turning to B5, the binding result (in assay [4]; with AlexaFluor488-ScMad2^wt) was “binds” throughout.

B6: GST-ScCdc20^184–210 (domain or fragment)
chain: IVFKQNVAEACGLDMNKRILQYMPEPP
As for B6, the binding result in assay [3] was “binds”.
